# Key:
# Test in all cases: cell-based or functional assay
# LNX2 (human) = LNX2 (human) (UniProt Q8N448)
# HOXA3 (human) = HOXA3 (human) (UniProt O43365)
# PDE9A (human) = PDE9A (human) (UniProt O76083)
# SF3A3 (human) = SF3A3 (human) (UniProt Q12874)
# HOXD3 (human) = HOXD3 (human) (UniProt P31249)
# LOC541468 (human) = LOC541468 (human) (UniProt Q96LR2)
# MIZF (human) = MIZF (human) (UniProt Q9BQA5)
# HOXB9 (human) = HOXB9 (human) (UniProt P17482)
# NOS3 (human) = NOS3 (human) (UniProt P29474)
# FLJ22471 (human) = FLJ22471 (human) (UniProt Q53HC0)
# KIAA1949 (human) = KIAA1949 (human) (UniProt Q6NYC8)
# SPG21 (human) = SPG21 (human) (UniProt Q9NZD8)
# MRPS6 (human) = MRPS6 (human) (UniProt P82932)
# C20orf141 (human) = C20orf141 (human) (UniProt Q9NUB4)
# FANCG (human) = FANCG (human) (UniProt O15287)
# TTC23 (human) = TTC23 (human) (UniProt Q5W5X9)
# KRT8 (human) = KRT8 (human) (UniProt P05787)
# NEFL (human) = NEFL (human) (UniProt P07196)
# FATE1 (human) = FATE1 (human) (UniProt Q969F0)
# ZNF614 (human) = ZNF614 (human) (UniProt Q8N883)
# DGCR6L (human) = DGCR6L (human) (UniProt Q9BY27)
# DHRS10 (human) = DHRS10 (human) (UniProt Q9BPX1)
# KIF9 (human) = KIF9 (human) (UniProt Q9HAQ2)
# CCDC24 (human) = CCDC24 (human) (UniProt Q8N4L8)
# LENG1 (human) = LENG1 (human) (UniProt Q96BZ8)
# MYEF2 (human) = MYEF2 (human) (UniProt Q9P2K5)
# NIF3L1 (human) = NIF3L1 (human) (UniProt Q9GZT8)
substance,measurement,setting,value
HIV-1 Tat,HIV LTR transactiv. (fold change),LNX2 (human),0.26 fold change
same,HIV LTR transactiv. (fold change),HOXA3 (human),0.29 fold change
same,HIV LTR transactiv. (fold change),PDE9A (human),0.28 fold change
same,HIV LTR transactiv. (fold change),SF3A3 (human),0.49 fold change
same,HIV LTR transactiv. (fold change),HOXD3 (human),7.3 fold change
same,HIV LTR transactiv. (fold change),LOC541468 (human),2.38 fold change
same,HIV LTR transactiv. (fold change),MIZF (human),2.5 fold change
HTLV-1 Tax p40,HTLV LTR transactiv. (fold change),LNX2 (human),0.28 fold change
same,HTLV LTR transactiv. (fold change),HOXB9 (human),3.69 fold change
same,HTLV LTR transactiv. (fold change),NOS3 (human),0.45 fold change
same,HTLV LTR transactiv. (fold change),FLJ22471 (human),2.25 fold change
same,HTLV LTR transactiv. (fold change),KIAA1949 (human),0.35 fold change
same,HTLV LTR transactiv. (fold change),SPG21 (human),0.21 fold change
same,HTLV LTR transactiv. (fold change),MRPS6 (human),0.38 fold change
same,HTLV LTR transactiv. (fold change),C20orf141 (human),2.8 fold change
same,HTLV LTR transactiv. (fold change),FANCG (human),3.48 fold change
same,HTLV LTR transactiv. (fold change),TTC23 (human),0.21 fold change
same,HTLV LTR transactiv. (fold change),KRT8 (human),0.24 fold change
same,HTLV LTR transactiv. (fold change),NEFL (human),0.45 fold change
same,HTLV LTR transactiv. (fold change),FATE1 (human),0.49 fold change
same,HTLV LTR transactiv. (fold change),ZNF614 (human),5.24 fold change
same,HTLV LTR transactiv. (fold change),DGCR6L (human),0.24 fold change
same,HTLV LTR transactiv. (fold change),DHRS10 (human),0.41 fold change
same,HTLV LTR transactiv. (fold change),KIF9 (human),0.37 fold change
same,HTLV LTR transactiv. (fold change),CCDC24 (human),2.88 fold change
same,HTLV LTR transactiv. (fold change),LENG1 (human),0.34 fold change
same,HTLV LTR transactiv. (fold change),MYEF2 (human),2.53 fold change
same,HTLV LTR transactiv. (fold change),NIF3L1 (human),0.39 fold change
